Experimental data taken from the DeepSol protein solubility set.

Assay: soluble on expression in E. coli; label from the status in PepcDB or PDB records

Sequence	soluble on expression in E. coli
MNSVSEPVPSHGKKPPKNVLAEHGGWKILRILLVSTYKDFRNERRAVLDLVENKLQPIASEKHVILQVEDFSWGSKAHLEEASSLYLIERLCREAVSSSSYFYLHFLGECSGYILDPNFTDQSFLRQHSISTGQSFSEVFLQLSGLQNEKSLFLYRNPSFHQELPFNVTHFIDGPVNRERAKYLTTMVRGEAPASKFIEYSVRTSGINNIHFKHIMFDELSGITKPIEAMVGKYLEKLPDGEAGIPSVEEFMNEYYSQLHVNQTIMSKIEYNLKSHKSILLVGDYCTGKTSILHRIQWKYRDAVIVQAKEKMSAIELRRAIEAKTNVILHDVEQKVVRYLLVDDIHLNFCENFKVKITLSQILQNFNCFAQIFSLLKQIFINFFQASKEAQQYLIGNEELVIVATSRKKKLEVDMNRIIIPHLEPEDILDELSFWLNGGEKEKSGVPSVKASNILKMSQQKRRRSIGTVEDGHQPDENIGWNSLKCRVIGTLGRIGSSDEKCAQLAQLSTLSVVEADMCLMESDGKGHLLIATLCYLTIVESGLNEMELRSLLILEYNLLPIAIRRNYKNLPFDYCPDEFGTTSCTQTLPLRWYFVLHRLGHLFMKIDGDSNHFVLPSACRRVVFKKYLKHPHNLEHFKKNFKEFLTNFSGKEWNRNRQIKMYL	not soluble
MNPIASNSAVTLHFTIKLKDGSVADSTHNQGKPAKLVMGDGSLSPNFEQCLLGMLPGEKKSVALAAQDAFGAPNPDHVHYMDRSKFLGGDLQLEVGTIMAFSGPDGMEIPGIITEIAGDSVTVDFNHPLAGQDITFDVEILSVE	not soluble
MKSPSAGAPDRHASSRSVPDRWNMHKPMLCDSLPTASRTAAAILNLAQREDVTAEALAQLIQTDPALTGRILRFANAPAQGTRRPVASVIDAIDLVGLPAVRQFALSLSLIDAHREGRCEAFDYAAYWQKSLARAVALQSITAQASTVAPKEAFTLGLLADVGRLALATAWPEEYSECLRKADGEALIALERERFATDHDELTRMLLTDWGFPQVFIDALQLSQQDEIRDEGRTGRFARQLALAQHIADHRLAEEPRRAALSPLLRAEARRCGLGDEDLARLLADPPADWLDWTRTIGLPGDAPTGGAEPSRPPPQTDEKLHVLLADDDPIMLARLSRQLEADGHHVASRRDGETALAYALEHQPEMVITDWHMKPMNGLELCRALRESALGGNVYIVMLTASESEDALVEAFGAGIDDYVIKPPSVRVLKARIRAGQRIITLHKKLARERKEIERYSSELAAANRRLELMAHTDQLTGLPNRRYAMDRLEREWAQARTFDRPLSIMMLDLDWFKSINDSLGHDAGDQALVHAARVMRETVRTSDVVCRMGGEEFLIIIPDTAGPAAIQTAERVRSAVEQQQPAKLKLSRPLTASIGVADSTSAPSLKDLLLKADNALYQVKQNGRNGVRYAGLAAALEHHHHHH	not soluble
MSQQSLISPSLQDILCKIQFNDTQFETTKKITRKRSNNFNPDRKKRNRITFDANQIDEMEKVFAENQYPDTMSREKLANKIQLHEERVQIWFQNRRAKYRREQKQTGHPYEPPSITKNPTGEKEKTQDCTTLTSASSPGPSNLSNDTLVSIEMAPKIGTKSVNLFPDQALSNTLNMIINANKNASENNYESEDQFNAESAKLLMLTLSNLFSLQNETTCE	not soluble
MLKKAEKFEKIFRLESSLRALERVRDFLSQESYERLRELVLIRLKGIKIEEKELNSKVAVAFSGGSDSSATYKILAWAGFKVYPITAKLPQMRDEVLKRLESGGAIFVEIPEYMEVMEDLIRKRTAICGRCHSMVMRAVEERARELGAEIVASGDMLTVGSGSIYEKDGIVILNLPAFLALDKKELLEILGWKKYELKYGCPLWKEAAKRAPVLKKFGLQRVLRELRGGALPKEFAKELIIDILRA	not soluble
MMGNKLTLPAELPDEQDLRAVLAYNMRLFRVNKGWSQEELARQCGLDRTYVSAVERKRWNIALSNIEKMAAALGVAAYQLLLPPQERLKLMTNSADTRQMPSESGI	not soluble
MGSDKIHHHHHHMTLYLGIDTSAYTTSLAIVDEQAELVYENRKILTVPEGERGLAQSAALFQHVQNLPQLVTAVPPQYWEKVSALGVSTAPRPIQESYMPVFLPGYGVAAAMASARCIPLVETSHQEGHLAAGIASSKLKEPHFLAIHISGGTTELLEVHHTQPGKLDIQLLGGTTDLHAGQFVDRVGVRLGLPFPAGKSLEELARQADPGAAAWLPSAVRGFEVSFSGVETAAQRLIDQGKNPADVARAVEGCIVRTLGKLLQAGMEKTTLSEILIVGGVASNQFIRQELKKRLARHANLHWAEPDWSRDNAIGVALLALEKVRGCII	not soluble
MNAWEVNFDGLVGLTHHYAGLSFGNEASTRHRFQVSNPRLAAKQGLLKMKALADAGFPQAVIPPHERPFIPVLRQLGFSGSDEQVLEKVARQAPHWLSSVSSASPMWVANAATIAPSADTLDGKVHLTVANLNNKFHRSLEAPVTESLLKAIFNDEEKFSVHSALPQVALLGDEGAANHNRLGGHYGEPGMQLFVYGREEGNDTRPSRYPARQTREASEAVARLNQVNPQQVIFAQQNPDVIDQGVFHNDVIAVSNRQVLFCHQQAFARQSQLLANLRARVNGFMAIEVPATQVSVSDTVSTYLFNSQLLSRDDGSMMLVLPQECREHAGVWGYLNELLAADNPISELKVFDLRESMANGGGPACLRLRVVLTEEERRAVNPAVMMNDTLFNALNDWVDRYYRDRLTAADLADPQLLREGREALDVLSQLLNLGSVYPFQREGGGNG	soluble
MDLGSFGRIPPQNIEAEQSVLGAILLDKEVLSSVTEIISSQDFYREDHREIFEAIMDLYEKGEPIDLITVAEQLKVRGSLEAVGGLEYLTNLASLVPTTANAKHYAKIVEEKSILRRLIKASSEIINMGYEAAEEVSYVLDKAEKSIFDVLQKRNTQGFALIKDVLIDTFNRLEELYNNKGYITGIPTGFVDLDYKTAGLQNSDLILIAARPAMGKTSFVLNIAQYAAIHAKVPVAIFSLEMSKEQLVNRMLCCEAMVDSQKMRTGKLEDSDWQKVARALGPLSEAPIYIDDTPGLSVAEIRAKCRRLKLEKNLGLVVIDYLQLMQGRGKSESRQQEISEISRSLKILAKEINVPVLTLSQLSRAPELRSDHRPILSDLRESGAIEQDADIVMFLYRDDYYNPDTEKKNIAEVIIAKHRNGSTGTVELAWLGQYTKFANLEKYRQ	not soluble
MTELERHLLNALEQLQQDYMQRLNEWESAFVELQKMFSLTQRDNAMLNEQVMQLSQQVQHLSERTERLSQLYSENRRLEHHHHHH	not soluble
METQKQTRRRGEKLENTILTAAWDQLNKVGYKDLTITEIASLAGTNKTTIYRRWPNKSLLVVSAFSKFVPRPKMHIPNSGNLRDDLVKLFEQLVNQLEFLTSGKFEGLLLDRLRDTSIDKVFGRVDENNALQKFIVIILQRAEKRGELKINQLSQRVLELPFLLLLNEVISTRGIVPKESLTEIVDKILLPVFLRSN	not soluble
MIDHAHLRLFQFCDSQFPTGAFSHSFGLETYIQRDTVHDEESFQQWLVLFLNEQLTYADGLTMRLVYDALNENDTKAILKLDRILFVQNLPKETRQGSKQMGNRMVKLASELYDSDWINWYHAQMKDKKASLHPAICFTMLGHHLGVDIETIIDYYLYQNVSSLTQNAVRAIPLGQTAGQRIVHKMIPIMKETRDHIMTIPASQLGITAPGLEINQMEHENVNVRIFISLEHHHHHH	not soluble
NTKQLRFEDVVNQSSPKNCTVYCGGIASGLTDQLMRQTFSPFGQIMEIRVFPEKGYSFVRFSTHESAAHAIVSVNGTTIEGHVVKCYWGKESPDMT	soluble
MANRSHHNAGHRAMNALRKSGQKHSSESQLGSSEIGTTRHVYDVCDCLDTLAKLPDDSVQLIICDPPYNIMLADWDDHMDYIGWAKRWLAEAERVLSPTGSIAIFGGLQYQGEAGSGDLISIISHMRQNSKMLLANLIIWNYPNGMSAQRFFANRHEEIAWFAKTKKYFFDLDAVREPYDEETKAAYMKDKRLNPESVEKGRNPTNVWRMSRLNGNSLERVGHPTQKPAAVIERLVRALSHPGSTVLDFFAGSGVTARVAIQEGRNSICTDAAPVFKEYYQKQLTFLQDDGLIDKARSYEIVEGAANFGAALQRGDVAS	soluble
MTLHKPTQAVPCRAPKVGRLIYTAGGYFRQSLSYLEAYNPSNGSWLRLADLQVPRSGLAGCVVGGLLYAVGGRNNSPDGNTDSSALDCYNPMTNQWSPCASMSVPRNRIGVGVIDGHIYAVGGSHGCIHHSSVERYEPERDEWHLVAPMLTRRIGVGVAVLNRLLYAVGGFDGTNRLNSAECYYPERNEWRMITPMNTIRSGAGVCVLHNCIYAAGGYDGQDQLNSVERYDVETETWTFVAPMRHHRSALGITVHQGKIYVLGGYDGHTFLDSVECYDPDSDTWSEVTRMTSGRSGVGVAVTMEPCRKQIDQQNCTCY	soluble
MLKMSTRTEAMSDKQVRAQYTREFKLEAVRQVRAGQAIAGVAKVLGIPKASLGNGVRLAAKGALGGSGGSDKADRVSPEQMEIARLRAEVARLRMERDIAKKAAAYFAQDTLRGTPGLTQLEHHHHHH	not soluble
MPKFVVIELNDDAATIDLLSYCVKKNFERVSLLTRLEDHPYLRDDQDVVQDDTQSQGTDGMLLQLNDEERQRLMKMISTPGPQTLSMERIQMAPGQGQHILQQHQIPSTSSYTNNSFIYIKSDPQYKDEPQQQSNQFDATVNSVAHGQAGLSTLEMFACNGSPNGGDVLRRKTPSRKAEDSIKATCKVCGHDVMYSPQRTWNLMRHVWIMHQSSKPNQCSICGYSHIKPYVRKHIESQHKHDSNATIIDLKSPELEAEWSQLLDQCFGVTYRKWKHHKEDTQHTVFAAGDEDYGHEHHFSPEEDVMTTL	not soluble
MGSDKIHHHHHHMGIRSHLAIAAGKTSQWVLQTFFKGGSSYPGKLALKIDPKILDTLAKDYEIVVVTGTNGKTLTTALTVNILRQEFDEVLTNPTGANMEQGIVSTFLNAKAKKGQKKFAVLEIDEASLSRVTKYIQPKLFVFTNIFRDQMDRYGEIYTTYRLIMEGAAAAPEATILCNGDSPIFNSKETVNPRKYYGFNHLPPKEQLAHYNTDGVLCPKCNHILHYKMITYANLGDYYCPNCGFKRPELDVQLTEMVRMDNTSADFVIDGEEYGIAVGGMYNVYNALAATAVAEYYQVAPDKIRAGLAYDEKVFGRQETIKVGDKECTLVLVKNPVGLNQVIDMMGLAPYSFSLVSLLNANYADGIDVSWIWDGNHEAFADMDIPKVIAGGDRHEDMALRLKVAGIPEEKLLEIADLEQVISEIKTLPTDHVYILATYTAVLQLRKSLTAQGYIQGGMNGV	not soluble
SLQMKNYQQTLKRMSDRSSGFLGVGVHKQKLGIGAIAIVVTDKDGEIVDCEMMSGVTVFSRFKPLTDFVGMSLNECKVLLQNESVDIALHGALKKIEEQMNRKENVTT	soluble
MAAHELKEALETLKETGVRITPQRHAILEYLVNSMAHPTADDIYKALEGKFPNMSVATVYNNLRVFRESGLVKELTYGDASSRFDFVTSDHYHAICENCGKIVDFHYPGLDEVEQLAAHVTGFKVSHHRLEIYGVCQECSKKENH	soluble
MSLGDSNSSTPLPDTSYACQANVMTQSNQLRTYQIMVESFVDGDTSIGHGTGYGTSHHNGDLQGVIDSLDYIQDLGMNAIWLTPVFESEAIAGQDHWADRLDATGYFATDYFKIDPKFGDLATAKTLVEEAHKRGLYVFFDGVFGHHKNGLIKPSPSGLLPSGSSNPVDYPASLDFYKEVATYWIKELKIDGWRLDQAYQVPTDAWTQLRKAVDEASQSVTYTNSKGDQVNPLGYMVAEIWKGESEIANEAYGSNSDPALCSAFDFPMRYRIVETLAVNESGVGGRGVDWLDNGYSTHNQYPTHAQPNLMIGNHDLVRFGDLLQRGNLADVNDAEYWLRHKAAFAFQAAYTGPITLYYGDEIGDQVDGFAAKEDNNTCAIQGLCDDHVARSSAKIEGVTATLDANQADLKAYVTSLMTMRDTHPALYQGSRTNLVASNGSYVDLKQSGSDKVLFALNTLESARTVILAQESVGTGELVDLLTNEKIAPSNGQYQLPMSPLQGRFFAVTEGHHHHHH	soluble
